Experimental data reported in patent US20110086006.
Residue numbers refer to the chain shown, from its start. In names and notes the source's numbering stands. Where two headings read alike, the source gives them in different places.

T1: internally quenched fluorogenic peptide (FRET substrate), Ac-DED(EDANS)EEαAbuψ[COO]ASK(DABCYL)-NH2
T1 chain: DEDEEXASK

T2: KK4A peptide (KKGSVVIVGRIVLSGK), central region of the NS4A cofactor from genotype 1a with lysine residues added for improved solubility
T2 chain: KKGSVVIVGRIVLSGK

B1: D168V mutant HCV NS3 serine protease domain, genotype 1b (protein)
chain: APITAYSQQTRGLLGCIITSLTGRDRNQVEGEVQVVSTATQSFLATCVNGVCWTVYHGAGSKTLAGPKGPITQMYTNVDQDLVGWQAPPGARSLTPCTCGSSDLYLVTRHADVIPVRRRGDSRGSLLSPRPVSYLKGSSGGPLLCPSGHAVGIFRAAVCTRGVAKAVVFVPVESMETTMRSHHHHHH
B2: wild type HCV NS3 serine protease domain, genotype 1b (Con1), residues Ala1-Ser181 with a C-terminal hexa-histidine tag (protein)
chain: B1 chain with V168D
B3: A156S mutant HCV NS3 serine protease domain, genotype 1b (protein)
chain: B1 chain with A156S, V168D
B4: A156V mutant HCV NS3 serine protease domain, Con1 strain (protein)
chain: B1 chain with A156V, V168D
B5: A156T mutant HCV NS3 serine protease domain, Con1 strain (protein)
chain: B1 chain with A156T, V168D
B6: D168A mutant HCV NS3 serine protease domain, genotype 1b (protein)
chain: B1 chain with V168A

Legend:
[1] = test system: internally quenched fluorogenic peptide (FRET substrate), Ac-DED(EDANS)EEαAbuψ[COO]ASK(DABCYL)-NH2
[2] = test system: KK4A peptide (KKGSVVIVGRIVLSGK), central region of the NS4A cofactor from genotype 1a with lysine residues added for improved solubility
[3] = molecular target: T1, internally quenched fluorogenic peptide …
[4] = molecular target: T2, KK4A peptide (KKGSVVIVGRIVLSGK), …

| Molecule | Kcat [1] [s⁻¹] | Kcat/Km [1] [M⁻¹ s⁻¹] | Km [1] [µM] | kinetic parameters for the FRET substrate [2] | Kcat [3] [s⁻¹] | Kcat/Km [3] [M⁻¹ s⁻¹] | Km [3] [µM] | kcat [3] [s⁻¹] | kcat/Km [3] [M⁻¹ s⁻¹] | kinetic parameters for the FRET substrate [4] |
| --- | --- | --- | --- | --- | --- | --- | --- | --- | --- | --- |
| wild type HCV NS3 serine protease domain, genotype 1a | 1.2 | 897000 | 1.3 | Although the NS4A peptide co-factor was from HCV genotype 1a, no discernable difference in the kinetic parameters was observed | – | – | – | – | – | – |
| B1 | – | – | – | – | 0.6 | 498000 | 1.2 | – | – | – |
| B2 | – | – | – | – | 1 | 947000 | 1.1 | 1 | 947000 | Although the NS4A peptide co-factor was from HCV genotype 1a, no discernable difference in the kinetic parameters was observed |
| B3 | – | – | – | – | 0.6 | 664000 | 0.9 | – | – | – |
| B4 | – | – | – | – | – | – | 2.6 | 0.6 | 234000 | – |
| B5 | – | – | – | – | – | – | 1.3 | 0.2 | 136000 | – |
| B6 | – | – | – | – | 0.3 | 150000 | 2 | – | – | – |
